This is an account of results in patent publication US20230056404A1 (priority 2019, published 2023).

Assay [1] deals with HEK293 cells. It is filed as cell-based, human.
Assay [2] concerns the target T1, DRD1 (Homo sapiens, UniProt P21728).
T1 construct: expressed in transfected cells; host or cells: HEK293
Nature of the assay: DRD1-Strep functional activity, cAMP-Glo assay. The conditions noted are these: HEK293 expressing DRD1-Strep. It is filed as cell-based. The procedure:
In addition to the illustration of a correctly translocated GPCR such as DRD1, activity tests were performed using a DRD1-Strep fusion. The smaller strep-tag ensures that the interaction with the cytosolic located G-protein is intact, and a functional assay can be performed. Upon binding of dopamine, DRD1 releases the heterotrimeric G-protein to its Gα subunit and its Gβγ complex. In the resting state, Ga binds GDP but upon activation exchanges GTP for GDP. The Gα-GTP complex interacts with adenylate cyclase (AC), resulting in activation of AC activity and consequently, increasing cAMP levels. Changes in intracellular cAMP levels can be measured by standard cAMP assays. The academic and industry standard (EG5) was compared to the same target protein in co-expression with the L-protein of ECMV.
DRD1-Strep fusions were expressed in HEK293 cells. […] Protein was expressed for 48 h and DRD1 activity was analyzed using the cAMP-Glo™ assay (Promega) according to manufacturer's instructions. After 48 h, cells were washed with sterile PBS pH 7.2 and cells were incubated for 2 h with 20 μl of a 1 mM dopamine substrate solution (+dopamine; ON) or PBS pH 7.2 (−dopamine; OFF) at 37° C. […] Luminescence was measured using a plate reader (BioTek Synergy™ LX) and data were analyzed using standard analysis programs.

The subject of assay [3] is Sf9 cells. Description: DRD1-GFP expression, localization and toxicity in Sf9 cells. The settings on record: Sf9, 72 h.
Experimental: DRD1-GFP fusions were expressed in Sf9 cells. Sf9 cells were seeded at 0.4×10^6 cells/well in a 6 well plate and incubated for 15 min at RT before transiently transfecting with either EG10 or EG8 using Cellfectin Reagent II (Thermofisher) according to manufactures instruction. DRD1-GFP expression was monitored after 72 h using fluorescence microscopy. Images were taken and analyzed by an Echo Revolve microscopy system.
Assay [4] can be described thus: Active C1-Inhibitor, MicroVue C1-Inhibitor Plus EIA. It counts as biochemical. The conditions noted are these: presence vs absence of the enhancer protein, protein concentration normalized. The procedure: (§1) C1-Inh-Myc-Flag fusions were expressed in HEK293 cells. HEK293 cells were seeded at 1.75×10^6/ml cells in 100 ml shaking flask and incubated at 37° C., 5% CO2 and 120 rpm overnight before transiently transfecting with a vector encoding C1-Inh (OriGene; CAT #: RC203767) either alone, or in combination with EG11 by transfection of suspension cells using methods known in the art and/or disclosed herein. Supernatant containing the expressed recombinant C1-Inh protein was harvested after 72 h and supernatant was cleared by centrifugation followed by filtration ([…], nitrocellulose). To purify C1-Inh, Anti-Flag resin (ANTI-FLAG M2 Affinity Gel, Millipore Sigma) was equilibrated with 20 mM Tris pH 7.5, 50 mM NaCl prior to adding to the supernatant. Supernatant was incubated with the resin for 2 h at 4° C. with shaking. Resin was settled and washed with 5 CV 20 mM Tris pH 7.5, 50 mM NaCl and protein was eluted with 4 CV 20 mM Tris pH 7.5, 50 mM NaCl, 0.2 mg/ml 3× Flag Peptide. Purification was analyzed by SDS-PAGE (SurePAGE, Bis-Tris, GenScript) and protein containing fractions were pooled. Protein concentration was analyzed by BCA Assay (ThermoFisher) according to manufactures instructions and normalized C1-Inh was tested for activity using Immunoassay (MicroVue C1-Inhibitor Plus EIA, Quidel) following manufactures instructions.

In assay [5] the test system is HEK293 cells. Nature of the assay: C1-Inhibitor secretion and purification, total amount produced. It is filed as cell-based, human. The settings on record: presence vs absence of the enhancer protein (L protein from EMCV, EG11), HEK293, 72 h. As for the experimental part:
as §1

Assay [6] has as its system CHO-K1 cells. Description: DRD1-GFP expression and membrane localization in CHO-K1 cells. The conditions noted are these: CHO-K1, 48 h.
Experimental: DRD1-GFP fusions proteins were expressed in CHO-K1 cells. CHO-K1 cells were seeded at 0.05×10^6 cells/well in a 24 well plate and incubated at 37° C. and 5% CO2 overnight before transiently transfecting with either EG10 or EG19 using Lipofectamine 3000 (Thermofisher) according to manufactures instructions. DRD1-GFP expression was monitored after 48 h using fluorescence microscopy. Images were taken and analyzed by an Echo Revolve microscopy system.

T1 sequence (P21728 with tags, fused parts or gaps): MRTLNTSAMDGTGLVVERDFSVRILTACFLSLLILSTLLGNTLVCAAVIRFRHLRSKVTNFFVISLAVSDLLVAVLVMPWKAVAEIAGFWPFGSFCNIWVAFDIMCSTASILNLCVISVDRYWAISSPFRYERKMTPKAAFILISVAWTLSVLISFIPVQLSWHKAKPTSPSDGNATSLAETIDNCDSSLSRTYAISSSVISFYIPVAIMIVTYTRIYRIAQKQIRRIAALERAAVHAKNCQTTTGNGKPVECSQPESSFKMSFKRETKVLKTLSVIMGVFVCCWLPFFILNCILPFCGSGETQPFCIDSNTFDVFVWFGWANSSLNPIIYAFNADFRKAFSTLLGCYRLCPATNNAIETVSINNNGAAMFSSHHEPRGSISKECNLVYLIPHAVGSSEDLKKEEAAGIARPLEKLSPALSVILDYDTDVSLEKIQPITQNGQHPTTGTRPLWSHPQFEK

For the molecule “Leader protein of ECMV: Leader protein of Encephalomyocarditis virus (EMCV), SEQ ID NO: 2, enhancer protein”, in assay [1], the “DRD1-GFP membrane association, enhancer on a separate vector” value is “ensures correct membrane association” and the “DRD1-GFP translocation into the outer membrane / inclusion bodies” value is “sufficient to ensure a correct membrane incorporation of DRD1-GFP”. Moreover, the “activating signal, difference between OFF (-dopamine) and ON (+dopamine) luminescence” value in assay [2] (1 mM dopamine 2 h) is “strong activating signal”. For the same molecule, the “leaky activation, OFF signal compared to non-transfected cells” value in assay [2] (absence of dopamine) is given as “greatly reduced”. In addition, the “DRD1-GFP translocation and localization” value in assay [3] was “improved expression and localization of the membrane protein”.

B1: C1-Inhibitor: secreted protease inhibitor of the serpin superfamily, expressed as C1-Inh-myc-flag fusion (protein, UniProt P05155 23-500, looked up)
Plasma protease C1 inhibitor: NPNATSSSSQDPESLQDRGEGKVATTVISKMLFVEPILEVSSLPTTNSTTNSATKITANTTDEPTTQPTTEPTTQPTIQPTQPTTQLPTDSPTQPTTGSFCPGPVTLCSDLESHSTEAVLGDALVDFSLKLYHAFSAMKKVETNMAFSPFSIASLLTQVLLGAGENTKTNLESILSYPKDFTCVHQALKGFTTKGVTSVSQIFHSPDLAIRDTFVNASRTLYSSSPRVLSNNSDANLELINTWVAKNTNNKISRLLDSLPSDTRLVLLNAIYLSAKWKTTFDPKKTRMEPFHFKNSVIKVPMMNSKKYPVAHFIDQTLKAKVGQLQLSHNLSLVILVPQNLKHRLEDMEQALSPSVFKAIMEKLEMSKFQPTLLTLPRIKVTTSQDMLSIMEKLEFFDFSYDLNLCGLTEDPDLQVSAMQHQTVLELTETGVEAAAASAISVARTLLVFEVQQPFLFVLWDQQHKFPVFMGRVYDPRA
modifications: myc-flag tag
For the molecule B1, the “increase of amount of active C1-Inhibitor” value in assay [4] is listed as above 10%. In assay [5], the “increase of total amount of produced C1-Inhibitor” value is above 30%.

B2: Leader protein of Theiler's virus: Leader protein of Theiler's virus, SEQ ID NO: 1, enhancer protein (protein)
chain: MACKHGYPLMCPLCTALDKTSDGLFTLLFDNEWYPTDLLTVDLEDEVFYPDDPHMEWTDLPLIQDIEMEPQ
modifications: Cardiovirus Theiler's-like cardiovirus
As to B2, the “DRD1-GFP translocation and localization” value in assay [6] is “improved expression and localization of the membrane protein”. Moreover, the “DRD1-GFP translocation into the outer membrane / inclusion bodies” value in assay [1] is “sufficient to ensure a correct membrane incorporation of DRD1-GFP”.
